{
  "source": "paper PMC4447274",
  "about": "“Gene Regulation by the LiaSR Two-Component System in Streptococcus mutans” (PLoS ONE, 2015)",
  "molecules": {"B1": {"name": "C13A/A17G consensus (dsDNA)", "DNA 1": "ATCAAAATCAGTATCAGGACCGATT", "DNA 2": "AATCGGTCCTGATACTGATTTTGAT"}, "B2": {"name": "IR only (16-bp) (dsDNA)", "DNA 1": "TCAGTCTCAAGACCGATT", "DNA 2": "AATCGGTCTTGAGACTGA"}, "B3": {"name": "A23G/T25C consensus (dsDNA)", "DNA 1": "ATCAAAATCAGTCTCAAGACCGGTC", "DNA 2": "GACCGGTCTTGAGACTGATTTTGAT"}},
  "key": {"LiaR": {"biological_target": "T1, LiaR (Streptococcus mutans, UniProt Q8DVJ8)", "T1 construct": "gene SMU_487; ORF from start codon, N-terminal His tag, E. coli BL21, Ni-NTA (pASK-IBA43+, pIBE11)", "assay": "Phos-Tag SDS-PAGE mobility shift (phosphorylation of LiaR)", "assay_type": "biochemical", "conditions": "20 mM MnCl2, 50 mM Tris-Cl, 50 mM KCl, 1 mM DTT, pH 7.5, 37 °C, 1 h, phosphodonor, covalent phosphorylation"}, "[1]": {"biological_target": "T2, His-LiaR (Streptococcus mutans UA159) (UniProt Q8DVJ8)", "T2 sequence": "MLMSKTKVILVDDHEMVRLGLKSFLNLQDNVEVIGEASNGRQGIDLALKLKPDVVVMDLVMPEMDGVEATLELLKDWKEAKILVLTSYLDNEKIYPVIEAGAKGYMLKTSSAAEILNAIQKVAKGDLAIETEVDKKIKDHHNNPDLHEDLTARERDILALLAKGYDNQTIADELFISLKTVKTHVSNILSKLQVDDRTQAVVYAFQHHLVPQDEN", "assay": "EMSA", "conditions": "20 mM Tris-Cl pH 7.5, 100 mM NaCl, 0.01 mM DTT, 5% glycerol, 1 mM EDTA, 0.01 mg/ml BSA, 5 mM MgCl2, 10 ug/ml poly(dI-dC), 30 min (EMSA); BLI in binding buffer …"}, "[2]": {"biological_target": "T3, His-LiaR-D58A D58A (Streptococcus mutans UA159) (UniProt Q8DVJ8)", "T3 sequence": "T2 sequence with D58A", "assay": "EMSA", "conditions": "20 mM Tris-Cl pH 7.5, 100 mM NaCl, 0.01 mM DTT, 5% glycerol, 1 mM EDTA, 0.01 mg/ml BSA, 5 mM MgCl2, 10 ug/ml poly(dI-dC), 30 min (EMSA); BLI in binding buffer …"}, "[3]": {"biological_target": "T2, His-LiaR (Streptococcus mutans UA159)", "assay": "competition", "conditions": "20 mM Tris-Cl pH 7.5, 100 mM NaCl, 0.01 mM DTT, 5% glycerol, 1 mM EDTA, 0.01 mg/ml BSA, 5 mM MgCl2, 10 ug/ml poly(dI-dC), 30 min (EMSA); BLI in binding buffer …"}, "His-LiaR [4]": {"biological_target": "T4, His-LiaR (Streptococcus mutans UA159, UniProt Q8DVJ8 1-215)", "assay": "BLI; 1 uM LiaR; Req reduced 3-fold; 20 mM Tris-Cl pH 7.5, 100 mM NaCl, 0.01 mM DTT, 5% glycerol, 1 mM EDTA, 0.01 mg/ml BSA, 5 mM MgCl2, 10 ug/ml poly(dI-dC), 30 min (EMSA); BLI in binding buffer", "conditions": "protein: recombinant; tags: N-terminal His; chain copies: 2; label: 32P end label (EMSA); 3' biotin on one strand (BLI)"}, "His-LiaR [5]": {"biological_target": "T4, His-LiaR", "assay": "EMSA; 15-30 pmol LiaR; 20 mM Tris-Cl pH 7.5, 100 mM NaCl, 0.01 mM DTT, 5% glycerol, 1 mM EDTA, 0.01 mg/ml BSA, 5 mM MgCl2, 10 ug/ml poly(dI-dC), 30 min (EMSA); BLI in binding buffer", "conditions": "protein: recombinant; tags: N-terminal His; chain copies: 2; label: 32P end label"}, "His-LiaR [6]": {"biological_target": "T4, His-LiaR", "assay": "BLI; 1 uM LiaR; 20 mM Tris-Cl pH 7.5, 100 mM NaCl, 0.01 mM DTT, 5% glycerol, 1 mM EDTA, 0.01 mg/ml BSA, 5 mM MgCl2, 10 ug/ml poly(dI-dC), 30 min (EMSA); BLI in binding buffer", "conditions": "protein: recombinant; tags: N-terminal His; chain copies: 2; label: 32P end label (EMSA); 3' biotin on one strand (BLI)"}},
  "note": "Numbering of substitutions follows the chain as printed. Names may count otherwise.",
  "data": [
    {"molecule": "CC(=O)OP(=O)(O)O", "note": "[Ac-Po4, acetyl phosphate]", "values": [
      {"measurement": "Phos-Tag SDS-PAGE mobility shift (phosphorylation of LiaR)", "setting": "LiaR; 50 mM acetyl phosphate", "result": "The wild-type protein readily acquired phosphate from both acetyl phosphate and phosphoamidate"}
    ]},
    {"molecule": "NP(=O)(O)O", "note": "[PA, phosphoamidate]", "values": [
      {"measurement": "Phos-Tag SDS-PAGE mobility shift (phosphorylation of LiaR)", "setting": "LiaR; 20 mM phosphoamidate", "result": "The wild-type protein readily acquired phosphate from both acetyl phosphate and phosphoamidate"}
    ]},
    {"molecule": "AGCTTAGTTATCATACATCAATCTTATACAGTCTTAATCCTAGACGGATACAAGTTTGATAACAAAAAAGTTATCTCTTCAAACAAGGAGGCTGAGGCAAGAACCTTAAACTTATAAATATAATAACTACAACATATGAGTATACCTGCATTAGATAACATTATTATCAACAGATCATAAACATAACTTGAATTGACATG (double strand) [PSMU.485 (Plia)]", "values": [
      {"measurement": "binding", "setting": "[1]", "result": "no binding"}
    ]},
    {"molecule": "ATTACCAATGTGAATCGTGTGGTCAAGTTTATCAAAGAAAAAGACGAATGAATACGAAAAAATACGCTTGTGGCAACTGCCATGGAAAATTAAGACATCAAAATCAGTCGTAAGGCTGATTTTATTCTTCTCTAAATAGTTTATACTAATAGCATCATGAGATTTGTGATTCATTTTTTAAAAAAGGGAGAGTTGTTTGT (double strand) [PSMU.753]", "values": [
      {"measurement": "binding", "setting": "[1]", "result": "binds"}
    ]},
    {"molecule": "CCTAAGTCCACCTCCCATCTTTAATCAATAGAGTTAGCACTCTTAACAGACGACTGCTAACTTCATAATTCCATTATACTCCATTCCTAATTTCTGTCAAGAGAAAAATACAAAAAATTAGCACTCTTTCTGCTTGAGTGCTAAAAATCCGACTTAAGACTTAGTTTTATTGCTGT (double strand) [PhrcA]", "values": [
      {"measurement": "binding", "setting": "[1]", "result": "binds"}
    ]},
    {"molecule": "CTTGTTTGAAGAGATAACTTTTTTGTTATCAAACTTGTATCCGTCTAGGATTAAGACTGTATAAGATTGATGTATGATAACTAAGCTATGGCGTCTTTGATATTTGAAAAATTCTCTTTATCTTTAGTGTTATTTGGTCTAGATCAAGAGGTGAAATTTATCCTAAATTTTGATACAATGACTAATAATTGTAGAACTGAAGGAAGCCTTATG (double strand) [Alternative PSMU.485]", "values": [
      {"measurement": "binding", "setting": "[1]", "result": "no binding"}
    ]},
    {"molecule": "GTTTATTCAAGAAATTCGCAAAGGTCCATCTCCTTTTTCTAAAGTCACTTATGTTGACGTCAATATAGCAAATTTTTCTGATTACCATGATTTCAGAATGGCCAATTAATTTATCTCAAAATCATTCTCAAGAACTATTGAGTATTTTACTAAAAAACAGTAAAATAGATAGGTATTATTAAAATCAAAGGAAGATTATC (double strand) [PSMU.1727]", "values": [
      {"measurement": "binding", "setting": "[1]", "result": "binds"}
    ]},
    {"molecule": "TTAATTGAGGAAGATAATACTGAAGAAAAACAGTCTTCTAAAGAAAAAGAAACTGATGAGAAAGCTGACAAAAACCTTGTTTTAGAGCTGGATGATACAATTGAGCTTGAAGATTAAATAAAAATAGGTCCCAAGACCGACTCTTTATTTAATAAGCTATGCTAAGATAATATTATCCTGTAAGGAAAGAGAGATTTAAAC (double strand) [PSMU.2084]", "values": [
      {"measurement": "binding", "setting": "[1]", "result": "binds"},
      {"measurement": "binding", "setting": "[2]", "result": "no binding"},
      {"measurement": "binding", "setting": "[3]", "result": "binds"}
    ]},
    {"molecule": "B1", "values": [
      {"measurement": "binding signal", "setting": "His-LiaR [4]", "result": "~4 fold reduction of Rmax vs consensus"}
    ]},
    {"molecule": "B2", "values": [
      {"measurement": "binding result", "setting": "His-LiaR [5]", "result": "no binding"}
    ]},
    {"molecule": "B3", "values": [
      {"measurement": "binding signal", "setting": "His-LiaR [6]", "result": "~1.5 fold reduction of Rmax and Req vs consensus"}
    ]}
  ]
}
